According to patent publication US20220041738A1 (SAITAMA MEDICAL UNIVERSITY, published 2022):

How the values were obtained:
Test in all cases: immunofluorescence on transfected, formalin-fixed C2C12 cells, IgG at 10 µg/mL, Alexa 594 anti-rat IgG
[1] = target: T1, human ALK2-G328R on cells (human, UniProt Q04771 21-509)
T1 sequence: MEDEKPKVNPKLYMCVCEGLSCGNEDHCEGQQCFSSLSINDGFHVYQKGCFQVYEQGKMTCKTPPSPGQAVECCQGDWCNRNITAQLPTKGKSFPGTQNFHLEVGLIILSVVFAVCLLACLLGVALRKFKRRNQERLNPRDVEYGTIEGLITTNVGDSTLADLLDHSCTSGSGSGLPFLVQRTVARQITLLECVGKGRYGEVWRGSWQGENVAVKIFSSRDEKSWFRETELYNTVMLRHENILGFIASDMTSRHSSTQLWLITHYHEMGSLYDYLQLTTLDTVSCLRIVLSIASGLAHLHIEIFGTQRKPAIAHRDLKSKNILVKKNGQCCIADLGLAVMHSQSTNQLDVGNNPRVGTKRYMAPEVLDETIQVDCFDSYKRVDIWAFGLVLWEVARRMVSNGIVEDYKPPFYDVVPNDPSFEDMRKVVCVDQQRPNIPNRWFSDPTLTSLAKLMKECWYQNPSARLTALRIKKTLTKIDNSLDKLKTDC
Protocol: (§1) Mouse C2C12 cells were seeded into a 96-well plate (Greiner Bio-One) at 0.5×10³ cells/well, and cultured in 15% FBS-containing DMEM medium overnight under the conditions of 5% CO₂ at 37° C. On the following day, the C2C12 cells were transfected with each of a wild-type human ALK2 cDNA integrated into pcDEF3; pcDEF3/human ALK2-L196P, pcDEF3/human ALK2-P197_F198delinsL, pcDEF3/human ALK2-R202I, pcDEF3/human ALK2-R206H, pcDEF3/human ALK2-Q207E, pcDEF3/human ALK2-R258S, pcDEF3/human ALK2-G325A, pcDEF3/human ALK2-G328E, pcDEF3/human ALK2-G328R, pcDEF3/human ALK2-G328W, pcDEF3/human ALK2-G356D, and pcDEF3/human ALK2-R375P, which are variants identified in FOP; and pcDEF3 as a control, using Lipofectamine 2000 (Invitrogen), and further cultured overnight.
(§2) The C2C12 cells were fixed with 10% neutral formalin (Nacalai Tesque, Japan) for 20 minutes at room temperature, and then blocked with 10% goat normal serum for 30 minutes. After the blocking agent was removed, purified IgG diluted to 10 μg/mL with the blocking agent was added, and the cells were left for 1 hour at room temperature. After the cells were washed with PBS three times, Goat Alexa 594-conjugated anti-rat IgG (Invitrogen) diluted to 1:1000 with the blocking agent was added, and the cells were left for 1 hour at room temperature. After the cells were washed with PBS three times, the cells were fixed with 10% neutral formalin for 15 minutes at room temperature, and nuclear-stained with DAPI (LifeTechnologies). Fluorescent signals were analyzed with a fluorescence microscope BZ-9000 (Keyence).

[2] = target: T2, human ALK2-R206H on cells (human, UniProt Q04771 21-509)
T2 sequence: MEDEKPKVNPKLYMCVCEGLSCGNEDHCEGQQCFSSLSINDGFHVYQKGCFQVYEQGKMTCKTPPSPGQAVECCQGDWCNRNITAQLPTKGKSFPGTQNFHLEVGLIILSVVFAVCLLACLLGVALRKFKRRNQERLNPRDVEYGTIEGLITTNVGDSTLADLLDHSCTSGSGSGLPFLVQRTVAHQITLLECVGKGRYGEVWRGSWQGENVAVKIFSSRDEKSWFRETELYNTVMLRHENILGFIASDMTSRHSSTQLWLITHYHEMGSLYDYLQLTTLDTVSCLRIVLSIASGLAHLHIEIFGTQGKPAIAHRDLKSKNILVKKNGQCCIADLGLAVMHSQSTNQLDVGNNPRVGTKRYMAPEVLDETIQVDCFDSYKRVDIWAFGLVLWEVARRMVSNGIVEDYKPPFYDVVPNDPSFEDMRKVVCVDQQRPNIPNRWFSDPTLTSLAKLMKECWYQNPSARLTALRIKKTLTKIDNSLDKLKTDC
Protocol: as §1, §2

[3] = target: T3, human ALK2-L196P on cells (human, UniProt Q04771 21-509)
T3 sequence: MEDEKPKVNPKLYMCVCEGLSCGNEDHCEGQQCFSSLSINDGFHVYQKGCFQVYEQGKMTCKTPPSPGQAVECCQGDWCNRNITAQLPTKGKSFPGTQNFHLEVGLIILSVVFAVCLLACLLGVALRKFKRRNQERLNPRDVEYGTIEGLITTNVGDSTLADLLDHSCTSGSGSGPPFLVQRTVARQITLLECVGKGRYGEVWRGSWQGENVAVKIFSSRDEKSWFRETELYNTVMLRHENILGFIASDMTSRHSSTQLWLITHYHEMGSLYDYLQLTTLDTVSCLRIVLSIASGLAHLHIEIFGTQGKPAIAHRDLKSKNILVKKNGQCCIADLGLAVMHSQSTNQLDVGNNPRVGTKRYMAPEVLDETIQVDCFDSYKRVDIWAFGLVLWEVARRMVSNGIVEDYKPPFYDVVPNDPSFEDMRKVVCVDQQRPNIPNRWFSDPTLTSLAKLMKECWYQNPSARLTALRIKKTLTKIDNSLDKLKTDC
Protocol: as §1, §2

[4] = target: T4, human ALK2-G356D on cells (human, UniProt Q04771 21-509)
T4 sequence: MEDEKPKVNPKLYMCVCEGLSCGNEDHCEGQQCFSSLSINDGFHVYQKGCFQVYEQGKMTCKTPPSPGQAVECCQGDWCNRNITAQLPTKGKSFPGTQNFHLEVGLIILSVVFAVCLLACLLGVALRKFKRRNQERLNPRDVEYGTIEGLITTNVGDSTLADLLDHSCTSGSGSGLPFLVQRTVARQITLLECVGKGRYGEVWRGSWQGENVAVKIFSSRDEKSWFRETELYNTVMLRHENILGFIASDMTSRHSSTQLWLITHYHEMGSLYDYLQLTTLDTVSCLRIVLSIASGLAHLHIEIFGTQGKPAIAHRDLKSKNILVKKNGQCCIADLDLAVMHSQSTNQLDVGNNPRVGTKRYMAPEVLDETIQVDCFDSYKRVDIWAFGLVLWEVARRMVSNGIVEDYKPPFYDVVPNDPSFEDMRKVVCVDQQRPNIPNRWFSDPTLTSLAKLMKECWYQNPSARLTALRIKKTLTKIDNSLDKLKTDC
Protocol: as §1, §2

Measured: binding result

B1: rat anti-ALK2 monoclonal antibody A2-27D (antibody, V domains shown)
VH: EVQLVESGGGLVQPGRSLKLSCLASGSTFSNYGMKWIRQAPGKGLEWVASISRSSTYIYYADTVKGRFTISRDNARNTLYLQMTSLRSEDTALYYCAAAISTPFYWYFDFWGPGTVVTVSS
VL: EIVLTQSPTTMAASPGEKVTLNCLASSSVSYMTWYQQKSGASPKLWIYGTSNLASGVPNRFSGSGSGTSYSLAISSMEAEDVATYYCLHLTSYPPYTFGAGTKLELKR
notes: Rat monoclonal IgG from a hybridoma; also called 27D11
binds: all assays above

B2: rat anti-ALK2 monoclonal antibody A2-25C (antibody, V domains shown)
VH: EVQLVESGGGLVQPGGSLKLSCAASGFTFSYYAMSWVCQAPTKGLEWVASISRGGDNTYYRDTVKGRFTTSRDNAKNTLYLQMDSLRSEDTATYYCARLNYNNYFDYWGQGVMVTVSS
VL: DIQMTQSPASLSASLEEIVTITCQASQDIGNWLSWYQQKPGKSPQLLIYGATSLADGVPSRFSGSRSGTQYSLKISRLRVEDIGIYYCLQAYSAPFTFGSGTKLEIKR
notes: Rat monoclonal IgG from a hybridoma; also called 25C11
binds: all assays above
